Reference: US9969998B2, “Compositions of adenosine deaminase-2 (ADA2), variants thereof and methods of using same” (Halozyme, Inc., priority 2014, dated 2018)
Positions count from the first letter of the chain named. In names and notes the source's numbering stands.

Assays:
ADA1 = target: T1, ADA1 (Homo sapiens, UniProt P00813); details: cited from earlier work
T1 sequence (P00813 1-363): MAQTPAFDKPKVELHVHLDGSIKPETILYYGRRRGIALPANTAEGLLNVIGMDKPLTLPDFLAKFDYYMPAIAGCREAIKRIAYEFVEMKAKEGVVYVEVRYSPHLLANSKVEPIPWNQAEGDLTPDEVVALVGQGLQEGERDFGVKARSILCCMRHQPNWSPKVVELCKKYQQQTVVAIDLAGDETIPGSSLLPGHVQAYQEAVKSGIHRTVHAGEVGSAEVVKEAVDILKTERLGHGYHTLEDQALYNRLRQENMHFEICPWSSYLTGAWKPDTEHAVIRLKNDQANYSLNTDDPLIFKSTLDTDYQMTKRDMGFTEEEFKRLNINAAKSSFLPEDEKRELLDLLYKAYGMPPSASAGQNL

ADA2 = target: T2, ADA2 (Homo sapiens, UniProt Q9NZK5); details: cited from earlier work
T2 sequence (Q9NZK5 30-511): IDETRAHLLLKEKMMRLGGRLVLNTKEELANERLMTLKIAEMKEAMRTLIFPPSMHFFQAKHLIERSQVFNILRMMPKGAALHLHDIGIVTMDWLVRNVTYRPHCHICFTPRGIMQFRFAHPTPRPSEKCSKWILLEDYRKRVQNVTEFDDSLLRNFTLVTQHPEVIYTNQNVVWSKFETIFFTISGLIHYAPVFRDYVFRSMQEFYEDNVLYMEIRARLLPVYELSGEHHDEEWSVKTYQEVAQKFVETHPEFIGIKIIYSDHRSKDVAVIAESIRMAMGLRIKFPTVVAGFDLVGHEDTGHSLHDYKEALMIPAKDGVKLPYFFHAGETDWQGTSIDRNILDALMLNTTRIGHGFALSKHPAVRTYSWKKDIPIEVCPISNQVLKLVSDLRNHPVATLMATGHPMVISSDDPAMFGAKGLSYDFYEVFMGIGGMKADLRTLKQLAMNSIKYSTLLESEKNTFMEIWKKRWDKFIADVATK

[1] = system: MH194+PSC4 pancreatic tumor; assay: Tumor growth inhibition and survival, MH194+PSC4 syngeneic tumor model; assay type: in vivo, C57BL/6 mice; details: for Tumor Growth Inhibition: vs vehicle; for Increase in MST: vs vehicle (MST 27 days)
Experimental: The murine MH194+PSC4 syngeneic tumor model was used to assess the antitumor efficacy of PEGylated a recombinant adenosine deaminase 2 (ADA2), PEGylated rHuADA2-R222Q/S265N (PEG-R222Q/S265N; PEG-R219Q/S262N by mature numbering).
The PSC4 cells are isolated and immortalized pancreatic stellate cells. To generate the PSC4 cells, pancreas from C57BL/6 mice were minced with razor blades and placed in 2 mL of a digestion buffer containing 0.05% collagenase P, 0.1% DNAse, and 0.02% Pronase in Gey's balanced salt solution (GBSS). Following two 15 min digestion incubations at 37° C. with thorough mixing after each incubation, the resulting cell suspension was filtered through a 100 μm nylon mesh, washed twice in GBSS with 0.3% bovine serum albumin (BSA), and resuspended in 10 mL GBSS/BSA. Eight mL of Histodenz (Sigma, Cat. No. D2158) was added to the cell suspension, and the entire volume was pipetted under 6 mL GBSS/BSA in order to generate a discontinuous density gradient. Following centrifugation for 20 min at 1,400 g with the brake set at zero, the desired cells were harvested from the interface between the two density volumes and washed once with PBS and once with DMEM medium supplemented with 2 mM L-glutamine, 10% fetal bovine serum, and 1% amphotericin-B (complete DMEM). Cells were immortalized using Lenti-SV40 (Capital Biosciences, Cat. No. CIP-0011) using manufacturer's protocol. The resulting cell line, designated PSC4, were maintained in tissue culture as an adherent monolayer in complete DMEM at 37° C. and 5% CO2. The MH194 mouse pancreatic carcinoma cells are derived from the KrasLSL.G12D/+p53R172H/+PdxCretg/+ genetically engineered mouse model. […]
Thirty-nine (39) male C57BL/6 mice were co-inoculated subcutaneously with 5×10^6 of a mixture of murine MH194 pancreatic cancer tumor cells and murine PSC4 pancreatic stellate cells in 0.1 mL injection volume per animal. Tumor volume was determined using digital calipers via measurement of length (L) and width (W) of the solid tumor masses. Tumor volume (TV) was calculated as: (L×W^2)/2. Tumors were allowed to grow and tumor bearing mice were staged for test article administration when the tumors were palpable and measured to be approximately 50-100 mm^3.
PEG-R222Q/S265N was prepared using similar methods as described in Example 8.A, with minor modifications to generate a preparation in which approximately 100% of the molecules were PEGylated as assessed by SDS-PAGE.
For treatment, MH194+PSC4 tumor bearing mice were randomized into five treatment groups (n=≤8); vehicle control (buffer only) or PEG-R222Q/S265N at four treatment doses. MH194+PSC4 tumor bearing mice were then injected intravenously (IV) every other day, at 0.003 mg/kg body weight, 0.03 mg/kg body weight, 0.3 mg/kg body weight and 3 mg/kg body weight of PEG-R222Q/S265N, or vehicle. […] Median survival time (MST) (in days) was calculated as the time at which 50% of the mice of the individual groups reached one of the following endpoints: (1) tumor volume reaches 2000 mm^3, (2) the animal loses >25% of its body weight, or (3) the animal appears moribund.

[2] = mouse, in vivo, iv, 3 mg/kg
From the text: (§1) Twenty-seven (27) male BALB/c mice were divided into three (3) dosing groups, and were further divided into three (3) groups each for sampling of blood at different time points. Thus, the mice were randomized into nine (9) groups total. Mice were weighed prior to the start of the study, and randomized into the 9 groups based upon their body weights. In each sampling group, three groups of (3) mice were used for dosing each test article to prevent oversampling of the blood from the animals. For measurement of baseline ADA2 levels, a blood sample was obtained from 12 randomly chosen mice and plasma was prepared using the anti-coagulant potassium (K3) ethylene diamine tetraacetic acid (K3-EDTA). All blood was collected by submandibular venipuncture.
(§2) PEGylated ADA2 variants were prepared using the PEGylation method as described in Example 8.A, with minor modifications. Briefly, all ADA2 variants at 10 mg/mL were PEGylated with linear PEG-20K (JenKem Technology, Plano, Tex.; Cat. No. M-SCM-20K) at 1:15 molar ratio and incubated first at 37° for 30 min, then at 4° C. for 16 hours.
(§3) Approximately 200 μL of whole blood was collected at designated sampling time points from appropriate groups of mice as indicated below in Table 38 and kept on ice until plasma preparation. The initial two (2) blood samples were collected by submandibular venipuncture. The final sample was collected from a terminal bleed. Plasma was prepared by centrifuging the blood (500×g for 5 min at 4° C.), transferring the plasma to a fresh tube and immediately freezing at −80° C. until the adenosine deaminase activity assay. Adenosine deaminase activity was determined as described in Example 4.
(§4) Non-compartmental analysis (NCA) was conducted using the Phoenix WinNonlin version 6.3 (Pharsight Corp, St. Louis, Mo. 63101). The half-life, or time taken for the activity of ADA2 proteins to be reduced by half, was calculated. Also, total exposure was measured by calculating the Area Under the Concentration-time Curve (AUC). The AUC and half-life values were obtained from the unweighted average from each test article group. The following options in the Phoenix WinNonlin program were used for data analysis: (i) linear trapezoidal/linear interpolation option for AUC; (ii) best-fit slope selection option for terminal slope; and (iii) uniform weighting of the data.

[3] = In vivo pharmacokinetics of PEGylated rHuADA2 combination variants (Example 14); details: 3 mg/kg intravenous
From the text: as §1, §2, §3, §4

[4] = Heparin binding ELISA (immobilized heparin); details: Example 8
Experimental: Heparin binding of a protein, such as any ADA2 provided herein, can also be assessed using enzyme-linked immunosorbant assay (ELISA) based methods. ELISA-based methods use heparin immobilized on a surface, such as a microtiter plate. The protein of interest which binds to heparin, such as any ADA2 provided herein, is incubated in the heparin coated plate, and binding is detected using antibodies that detect the protein of interest, such as any ADA2 provided herein.
For example, a 96-well plate coated with 100 μL of 200 μg/mL heparin sodium salt (Calibochem, EMD Milipore, Billerica, Mass.; Cat. No. 375095) in Na2CO3 buffer (pH 9.6) can be used to test ADA2 binding to heparin. […] The optical density (OD) of each reaction is measured on a plate reader.
In another example, heparin is immobilized by incubating Streptavidin-coated microtiter plates, such as the Streptavidin-coated 96-well plate (Thermo Fisher Scientific, Rockford, Ill.; Cat. No. 15520), with biotinylated heparin, such as biotin-heparin (Sigma-Aldrich, St. Louis, Mo.; Cat No. B9806-10MG). […] The optical density (OD) of each reaction is measured on a plate reader. […]

[5] = 0.003 mg/kg IV every other day, day 11
[6] = 0.03 mg/kg IV every other day, day 11
[7] = 0.3 mg/kg IV every other day, day 11
[8] = 3 mg/kg IV every other day, day 11
[9] = day 11, 0.003 mg/kg IV every other day
[10] = male BALB/c mice, WT from Example 9

OC[C@H]1O[C@@H](n2cnc3c2N=CNC[C@H]3O)[C@H](O)[C@@H]1O [Coformycin]
inhibition of ADA1 (ADA1): potent inhibitors | inhibition of ADA2 (ADA2): potent inhibitors

CCCCCC[C@H]([C@H](C)O)n1cnc2c(N)ncnc21 [EHNA, (+)-erythro-9-(2-hydroxy-3-nonyl)adenine]
inhibition of ADA1 (ADA1): selectively inhibits ADA1 | inhibition of ADA2 (ADA2): does not inhibit ADA2

B1: PEG-R222Q/S265N: rHuADA2-R222Q/S265N (SEQ ID NO:273) PEGylated with linear PEG-20K (conjugate)
chain: T2 sequence (Q9NZK5 30-511) with R219Q, S262N
modifications: linear PEG-20K; human ADA2 R219Q/S262N, mature numbering
MST (median survival time) ([1]; 0.003 mg/kg IV every other day): 46 days | Average Tumor Volume [1, 5]: 323.9 mm^3 | Tumor Growth Inhibition [1, 5]: 72% | Increase in MST ([1]; 0.003 mg/kg IV every other day): 70% | median survival time (MST) ([1]; 0.003 mg/kg dose): 46 days | mice that survived beyond 41 days ([1]; 0.003 mg/kg dose): Five out of eight | MST (median survival time) ([1]; 0.03 mg/kg IV every other day): 26 days | Average Tumor Volume [1, 6]: 680.45 mm^3 | Tumor Growth Inhibition [1, 6]: 21% | Increase in MST ([1]; 0.03 mg/kg IV every other day): 0% | MST (median survival time) ([1]; 0.3 mg/kg IV every other day): 32.5 days | Survival time ([1]; 0.3 mg/kg IV every other day): 13 to 41 days | Average Tumor Volume [1, 7]: 700.59 mm^3 | Tumor Growth Inhibition [1, 7]: 20% | Increase in MST ([1]; 0.3 mg/kg IV every other day): 20% | MST (median survival time) ([1]; 3 mg/kg IV every other day): 23.5 days | Average Tumor Volume [1, 8]: 678.58 mm^3 | Tumor Growth Inhibition [1, 8]: 22% | Increase in MST ([1]; 3 mg/kg IV every other day): 0% | Average Tumor Volume [1, 9]: approximately 324 mm^3 | tumor growth inhibition (TGI) [1, 9]: approximately 72% | Half-life slow (t1/2) [2]: 2,790 min | Percent increase in t1/2 compared to WT ADA2 [2]: 4,043% | AUC (total exposure) ([3]; BALB/c mice, plasma ADA activity): 16,330 (U * h)/mL | Percent increase in AUC compared to WT ADA2 ([3]; BALB/c mice, vs non-PEGylated WT rHuADA2 of Example 9): 49,661% | AUC higher than the non-PEGylated WT rHuADA2 [3, 10]: 49661% | half-life longer than the non-PEGylated WT rHuADA2 [3, 10]: 4043%

B2: PEGylated ADA2: ADA2 conjugate that is a PEGylated ADA2 (conjugate, UniProt Q9NZK5 30-511, looked up)
Adenosine deaminase 2: T2 sequence (Q9NZK5 30-511)
modifications: PEG
heparin binding compared to the corresponding non-PEGylated ADA2 [4]: reduced heparin binding
